Data published in paper PMC4660254.

Molecular target: Mud C-terminal coiled-coil domain (Mud^CC) (Drosophila)
Assay: SEC

Mud C-terminal coiled-coil domain (Mud^CC) (domain or fragment)
stoichiometry N: 3
